The text below walks through data of patent US20260002137.

What all share (assay): cell_activity
In data set [1] the test system is cysCreTEV (cyclized sCre with ENLYFQS site) (Escherichia phage P1?). The settings on record: 293T; uncleaved (mock); with TEVp GFP MFI similar to non-cyclized sCre.
Data set [2] relates to ProCre-LRGAG (cyclized sCre with AVP site) (Escherichia phage P1?). The settings on record: 293T; without AVP 4.5±0.6%; with AVP 40±1%; FLEx module with mCherry removed.
Data set [3] deals with sCre (truncated Cre, residues 19-343) (Escherichia phage P1?). The settings on record: 293T; by GFP MFI; similar % GFP+ cells as full-length.
Data set [4] deals with ProCreHRV (cyclized sCre with LEVLFQGP site) (Escherichia phage P1?). The conditions noted are these: 293T; without HRV 3C protease 5±1%; with HRVp 49±4%; FLEx.2 module.

Take “FLEx DiO cassette with loxP and lox2272 pairs”: the activity is 3.2 % GFP+ cells in data set [1], 4.5 % GFP+ cells in data set [2] and 5 % GFP+ cells in data set [4]. The Cre recombination activity (GFP reporter MFI) (% of full-length Cre) in data set [3] amounted to 77.
